Experimental data: article PMC5428437, “The function of two P450s, CYP9M10 and CYP6AA7, in the permethrin resistance of Culex quinquefasciatus” (Scientific Reports, 2017)

Columns and labels:
[1] = substrate: CCOc1ccc2ccc(=O)oc2c1; assay: 7-ethoxycoumarin O-deethylation (ECOD), fluorescence of 7-hydroxycoumarin, Sf9 microsomes; format: biochemical, Culex quinquefasciatus; settings: 1 mM NADPH, 0.1 M sodium phosphate pH 7.5, 30 °C, 30 min, substrate 0.1 to 1.2 mM, apparent
Source text: 7-ethoxycoumarin O-deethylation (ECOD), fluorescence of 7-hydroxycoumarin, Sf9 microsomes on CYP6AA7/CPR

[2] = substrate: CCOc1ccc2ccc(=O)oc2c1; assay: as above; format: biochemical, Culex quinquefasciatus; settings: 1 mM NADPH, 0.1 M sodium phosphate pH 7.5, 30 °C, 30 min, substrate 0.1 to 1.2 mM, apparent; remark: listed apart in the source
Source text: 7-ethoxycoumarin O-deethylation (ECOD), fluorescence of 7-hydroxycoumarin, Sf9 microsomes on CYP9M10/CPR

| Protein | Km [1] [µM] | Km [2] [µM] |
| --- | --- | --- |
| CYP6AA7/CPR (Culex quinquefasciatus) (protein, complete reading frames cloned from 4th instar larvae cDNA; microsomal protein, not purified; with NADPH--cytochrome P450 reductase) MSLLNTLLYLVLPVAALIYLFVRRKLSYWADRNVPHAPGSFPMGSLQGMGTKYHMSHILERIYQQFKNESPAVGFYLTMKPTLMVTDLELVKQVLVKDFNSFRDRGVYYNEKDDPVSAHLFAIDGEKWRFLRNKLSPTFTSGKIKYMFNTMQEIGDEFVECFGRYEEREEAVDVKTLCGWFTCDVIGSCAFGLNCNSLKNEESELITIANRLFKPSPIDAMWQFFFMSFRDLSAKLRLLILPRDIAKYFMTLIPETVTYREQNNVTRPDFLQLLIQLKNKGTVDGAEQESSGETLTMNQVVAQSFVFMLGGFETTSTALTFALFELANNPEIQEKVRVEVSSVLARHDGKITYDALKEMTYLEQVVNETLRMYPPVPFVARNSNHSYHITHPDVTLDADTMVLVPVYAIHYDPDIYQNPTRFDPDRFTPEATQARHTHAFLPFGDGPRNCIGLRFALLEVKFGIAVLLSKFRFSPSAKMILPLELDISAPMMAAKGGVWLDVNKINSKE | 564.8 ± 14.7 | – |
| CYP9M10/CPR (Culex quinquefasciatus) (protein, complete reading frames cloned from 4th instar larvae cDNA; microsomal protein, not purified; with NADPH--cytochrome P450 reductase) MTSLEWLLLLVPTAIYLFYRWSVATFDYFEKRGVPFVKPVPLLGGMWNFFSGKMHMVDAGSLGYEMFPDSRFSGFFAFRKPGYLIHDPELVKQITIKDFDHFADHTNVVPIEADPVLGRALFFTEGTRWKHGRSGLSPAFTGRKMRNMFALLSNYMEGAMGRLVDDARRDGGLELEMRDLFQKLGNDVTTSLSFGVEIDSVHNPNNEFMRRGKELIATDGIQGLKFLLLTVLPKSFFRTLRIRIIPKEATDFYVDVISKTIKQREEHNIVRPDFIHLLVQGRKNELKMEQADDQLKSAGFSTVEEHLQSSTENSQYSDLDITAAAASFFFGGLETTTTVICFALYEMSQNPNVKQKLQAEIDQVKEQLSTTDSKLSYEVLQNMKYLDMVVSETLRRWAPLGLTNRACTKPYTIEDNNGTKVSIQVGDLIQIPIQSIHRDHRFYPDPYKFDPERFSEENKANINRSAFLPFGSGPRNCIGSRLALMQTKCFLYYTLANFELELCPKTDVPIKLNKRSVSLDTLSGFWFRMVPRGEMKK | – | 779.3 ± 16.0 |
